Reference: patent US20250059278A1 (SICHUAN HUIYU PHARMACEUTICAL, published 2025)
Residue numbers refer to the chain shown, from its start.

Legend:
[1] = molecular target: T1, Monkey CD3 on cynomolgus HSC-F cells (cynomolgus monkey, UniProt Q95LI5 22-198; Q95LI7 23-181; Q95LI8 22-171); assay: flow cytometry on HSC-F cells
T1 construct: whole, on cells; also called Monkey CD3-expressing cynomolgus HSC-F cells; cynomolgus monkey CD3-expressing HSC-F cells

[2] = molecular target: T2, Human CD3 on Jurkat cells (human, UniProt P07766 23-207; P09693 23-182; P04234 22-171); assay: flow cytometry on Jurkat cells
T2 construct: whole, on cells; also called Human CD3-expressing Jurkat cells; Jurkat (naturally expressing human CD3)

[3] = molecular target: T3, Human CD3εγ recombinant antigen (acrobiosystems, Cat. No. CDG-H52W5) (human, UniProt P07766 23-126; P09693 23-116); assay: SPR chip (Carterra), antibody captured, antigen in flow;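 also: antibodies captured through anti-human IgG Fc at roughly 1000 RU, kinetic constants fitted with a 1:1 binding model in Carterra analysis software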
T3 construct: Bought recombinant protein
Procedure: Antibodies at three concentrations of 4, 2, and 1 μg/mL were immobilized on the HC200M chip containing anti-human IgG Fc secondary antibody (Xantec, Cat. No.: HC200M), and the antibody binding amount was controlled to approximately 1000RU. […] The kinetic constants were obtained by fitting using the 1:1 binding model of Kinetics software from Carterra.

B1: CD3 monoclonal antibody M4 (antibody, human IgG1, lambda, V domains shown)
VH: EVQLVESGGGLVQPGGSLRLSCAASGFTFNTYAMNWVRQAPGKGLEWVARIRSKYNNYATYYADSVKDRFTISRDDSKSILYLQMNNLKTEDTAVYYCVRHGNFQNSYVSWFQYWGQGTLVTVSS
VL: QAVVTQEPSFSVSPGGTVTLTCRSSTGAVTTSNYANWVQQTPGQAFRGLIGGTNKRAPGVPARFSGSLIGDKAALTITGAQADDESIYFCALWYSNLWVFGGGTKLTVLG
notes: IgG: VH4 + IgG1 mutant CH, VL-1 + CL
B1 showed an EC50 [1] of 434 pM, an EC50 [2] of 402 pM and a Kd [3] of 3400 pM. It also gave a koff [3] of 0.00517 s⁻¹ and a kon [3] of 1.52e+06 M⁻¹ s⁻¹.

B2: CD3 monoclonal antibody M16 (antibody, human IgG1, lambda, V domains shown)
VH: B1 VH with D68G, N87S, Q105G
VL: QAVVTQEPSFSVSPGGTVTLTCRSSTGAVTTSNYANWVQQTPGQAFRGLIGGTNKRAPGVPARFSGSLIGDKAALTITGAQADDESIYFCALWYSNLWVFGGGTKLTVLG
notes: IgG: VH16 + IgG1 mutant CH, VL-1 + CL
Binder B2 has an EC50 [1] of 162 pM, an EC50 [2] of 478 pM and a Kd [3] of 2020 pM. The koff [3] was 0.00188 s⁻¹ and the kon [3] was 929000 M⁻¹ s⁻¹.

B3: CD3 monoclonal antibody M17 (antibody, human IgG1, lambda, V domains shown)
VH: B1 VH with N87S, V95M, Q105W, Q113A, Y114S
VL: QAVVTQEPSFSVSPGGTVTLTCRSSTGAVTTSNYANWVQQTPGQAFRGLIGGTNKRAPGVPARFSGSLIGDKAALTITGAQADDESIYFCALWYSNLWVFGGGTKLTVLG
notes: IgG: VH17 + IgG1 mutant CH, VL-1 + CL
For B3, the EC50 [1] was 210 pM, the EC50 [2] was 181 pM and the Kd [3] was 2520 pM. It also gave a koff [3] of 0.00108 s⁻¹ and a kon [3] of 429000 M⁻¹ s⁻¹.

B4: CD3 monoclonal antibody M21 (antibody, human IgG1, lambda, V domains shown)
VH: B1 VH with D68G, I80S, N87S, V95M, G102S, Q105G, S107T, Q113A
VL: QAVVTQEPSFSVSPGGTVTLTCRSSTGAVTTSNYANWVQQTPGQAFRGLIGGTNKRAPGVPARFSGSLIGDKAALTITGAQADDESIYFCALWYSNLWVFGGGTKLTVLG
notes: IgG: VH21 + IgG1 mutant CH, VL-1 + CL
In the case of B4, the EC50 [1] is reported as 1230 pM, the EC50 [2] is reported as 41600 pM and the Kd [3] is reported as 3710 pM. It also gave a koff [3] of 0.00649 s⁻¹ and a kon [3] of 1.75e+06 M⁻¹ s⁻¹.

B5: CD3 monoclonal antibody M3 (antibody, human IgG1, lambda, V domains shown)
VH: B1 VH with N87S, V95M, Q105G, Q113E
VL: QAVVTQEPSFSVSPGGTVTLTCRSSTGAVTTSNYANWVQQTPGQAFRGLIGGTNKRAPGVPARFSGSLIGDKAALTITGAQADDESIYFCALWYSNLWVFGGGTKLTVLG
notes: IgG: VH3 + IgG1 mutant CH, VL-1 + CL
With B5 the EC50 [1] was 314 pM, the EC50 [2] was 261 pM and the Kd [3] was 1360 pM. It also gave a koff [3] of 0.0015 s⁻¹ and a kon [3] of 1.1e+06 M⁻¹ s⁻¹.

B6: CD3 monoclonal antibody M18 (antibody, human IgG1, lambda, V domains shown)
VH: B1 VH with I80S, N87S, V95M, H101A, Q105G, S110N, Q113A
VL: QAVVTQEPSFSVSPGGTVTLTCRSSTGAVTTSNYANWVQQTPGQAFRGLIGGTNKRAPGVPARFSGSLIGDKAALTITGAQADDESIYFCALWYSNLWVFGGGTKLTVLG
notes: IgG: VH18 + IgG1 mutant CH, VL-1 + CL
Binder B6 has an EC50 [1] of 841 pM, an EC50 [2] of 515 pM and a Kd [3] of 179000 pM.

B7: CD3 monoclonal antibody M11 (antibody, human IgG1, lambda, V domains shown)
VH: B1 VH with I80S, N87S, G102S, Q105V, Q113A
VL: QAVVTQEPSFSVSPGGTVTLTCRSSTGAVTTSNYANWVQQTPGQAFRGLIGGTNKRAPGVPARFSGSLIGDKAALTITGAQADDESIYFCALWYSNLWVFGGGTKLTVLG
notes: IgG: VH11 + IgG1 mutant CH, VL-1 + CL
Binder B7 has an EC50 [1] of 169 pM, an EC50 [2] of 130 pM and a Kd [3] of 2950 pM. For the same binder, the koff [3] was 0.00677 s⁻¹ and the kon [3] was 2.3e+06 M⁻¹ s⁻¹.

B8: CD3 monoclonal antibody M31 (antibody, human IgG1, lambda, V domains shown)
VH: B1 VH with D68G, G102S, Q105G, Q113E
VL: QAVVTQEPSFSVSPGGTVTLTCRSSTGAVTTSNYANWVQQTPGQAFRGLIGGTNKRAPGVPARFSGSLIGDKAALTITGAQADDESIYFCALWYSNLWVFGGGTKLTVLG
notes: IgG: VH31 + IgG1 mutant CH, VL-1 + CL
In the case of B8, the EC50 [1] is reported as 154 pM, the EC50 [2] is reported as 1560 pM and the Kd [3] is reported as 430 pM. The koff [3] was 0.00126 s⁻¹ and the kon [3] was 2.92e+06 M⁻¹ s⁻¹.

B9: CD3 monoclonal antibody M2 (antibody, human IgG1, lambda, V domains shown)
VH: B1 VH with D68G, I80S, N87S, V95M, H101A, G102K, Q105G, Q113A
VL: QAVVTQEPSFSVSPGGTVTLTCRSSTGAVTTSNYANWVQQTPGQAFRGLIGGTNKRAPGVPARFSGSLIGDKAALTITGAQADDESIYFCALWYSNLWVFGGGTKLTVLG
notes: IgG: VH2 + IgG1 mutant CH, VL-1 + CL
B9 gave an EC50 [1] of 224 pM, an EC50 [2] of 214 pM and a Kd [3] of 6600 pM. It also gave a koff [3] of 0.00363 s⁻¹ and a kon [3] of 550000 M⁻¹ s⁻¹.

B10: CD3 monoclonal antibody M23 (antibody, human IgG1, lambda, V domains shown)
VH: B1 VH with D68G, N87S, V95M, G102S, Q105L, Q113A
VL: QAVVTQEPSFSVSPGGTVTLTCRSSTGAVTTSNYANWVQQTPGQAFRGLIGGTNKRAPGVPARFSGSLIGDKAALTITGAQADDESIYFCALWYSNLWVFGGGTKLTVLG
notes: IgG: VH23 + IgG1 mutant CH, VL-1 + CL
Work on B10 yielded an EC50 [1] of 164 pM, an EC50 [2] of 186 pM and a Kd [3] of 1570 pM. It also gave a koff [3] of 0.00549 s⁻¹ and a kon [3] of 3.5e+06 M⁻¹ s⁻¹.

B11: CD3 monoclonal antibody M5 (antibody, human IgG1, lambda, V domains shown)
VH: B1 VH with N87S, Q105K, Q113A
VL: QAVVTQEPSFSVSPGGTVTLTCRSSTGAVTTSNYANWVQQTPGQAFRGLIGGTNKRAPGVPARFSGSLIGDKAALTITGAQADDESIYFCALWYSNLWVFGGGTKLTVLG
notes: IgG: VH5 + IgG1 mutant CH, VL-1 + CL
B11 showed an EC50 [1] of 152 pM, an EC50 [2] of 154 pM and a Kd [3] of 5840 pM. It also gave a koff [3] of 0.0101 s⁻¹ and a kon [3] of 1.74e+06 M⁻¹ s⁻¹.

B12: CD3 monoclonal antibody M10 (antibody, human IgG1, lambda, V domains shown)
VH: B1 VH with I80S, N87S, G102S, Q105R, Q113A
VL: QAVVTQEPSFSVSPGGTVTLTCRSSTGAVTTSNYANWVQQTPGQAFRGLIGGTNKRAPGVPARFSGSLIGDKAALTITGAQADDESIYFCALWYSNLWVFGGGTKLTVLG
notes: IgG: VH10 + IgG1 mutant CH, VL-1 + CL
B12 showed an EC50 [1] of 194 pM, an EC50 [2] of 1230 pM and a Kd [3] of 2150 pM. The koff [3] was 0.00653 s⁻¹ and the kon [3] was 3.04e+06 M⁻¹ s⁻¹.

B13: CD3 monoclonal antibody M7 (antibody, human IgG1, lambda, V domains shown)
VH: B1 VH with I80S, V95M, H101A, Q105G, Q113E
VL: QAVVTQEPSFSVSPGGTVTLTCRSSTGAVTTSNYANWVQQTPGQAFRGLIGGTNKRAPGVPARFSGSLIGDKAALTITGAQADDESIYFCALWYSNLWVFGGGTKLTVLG
notes: IgG: VH7 + IgG1 mutant CH, VL-1 + CL
B13 gave an EC50 [1] of 690 pM, an EC50 [2] of 1710 pM and a Kd [3] of 2390 pM. It also gave a koff [3] of 0.0011 s⁻¹ and a kon [3] of 460000 M⁻¹ s⁻¹.

B14: CD3 monoclonal antibody M27 (antibody, human IgG1, lambda, V domains shown)
VH: B1 VH with D68G, N87S, V95M, G102A, Q105G, Q113A, Y114S
VL: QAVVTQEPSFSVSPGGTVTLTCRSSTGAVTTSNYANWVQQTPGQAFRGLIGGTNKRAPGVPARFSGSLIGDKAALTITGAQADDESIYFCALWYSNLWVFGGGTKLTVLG
notes: IgG: VH27 + IgG1 mutant CH, VL-1 + CL
Binder B14 has an EC50 [1] of 165 pM, an EC50 [2] of 402 pM and a Kd [3] of 2440 pM. The koff [3] was 0.0028 s⁻¹ and the kon [3] was 1.15e+06 M⁻¹ s⁻¹.

B15: CD3 monoclonal antibody M20 (antibody, human IgG1, lambda, V domains shown)
VH: B1 VH with I80S, N87S, Q105G
VL: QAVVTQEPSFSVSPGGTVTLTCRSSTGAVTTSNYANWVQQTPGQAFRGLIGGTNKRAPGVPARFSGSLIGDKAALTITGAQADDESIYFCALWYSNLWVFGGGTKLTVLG
notes: IgG: VH20 + IgG1 mutant CH, VL-1 + CL
With B15 the EC50 [1] was 6580 pM, the EC50 [2] was 61700 pM and the Kd [3] was 2560 pM. For the same binder, the koff [3] was 0.00232 s⁻¹ and the kon [3] was 908000 M⁻¹ s⁻¹.

B16: CD3 monoclonal antibody M1 (antibody, human IgG1, lambda, V domains shown)
VH: B1 VH with D68G, V95M, G102A, Q105L, Q113A
VL: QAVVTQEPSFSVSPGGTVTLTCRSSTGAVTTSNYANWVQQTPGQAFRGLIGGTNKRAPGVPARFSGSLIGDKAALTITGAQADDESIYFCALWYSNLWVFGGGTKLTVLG
notes: IgG: VH1 + IgG1 mutant CH, VL-1 + CL
With B16 the EC50 [1] was 117 pM, the EC50 [2] was 581 pM and the Kd [3] was 2570 pM. The koff [3] was 0.0105 s⁻¹ and the kon [3] was 4.09e+06 M⁻¹ s⁻¹.

B17: CD3 monoclonal antibody M12 (antibody, human IgG1, lambda, V domains shown)
VH: B1 VH with D68G, I80S, V95M, G102S, Q105P, Q113A
VL: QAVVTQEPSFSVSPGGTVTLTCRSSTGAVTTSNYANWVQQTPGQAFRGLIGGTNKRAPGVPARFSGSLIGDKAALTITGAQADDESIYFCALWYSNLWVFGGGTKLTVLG
notes: IgG: VH12 + IgG1 mutant CH, VL-1 + CL
For B17, the EC50 [1] was 162 pM, the EC50 [2] was 270 pM and the Kd [3] was 1930 pM. The koff [3] was 0.00768 s⁻¹ and the kon [3] was 3.97e+06 M⁻¹ s⁻¹.

B18: CD3 monoclonal antibody M19 (antibody, human IgG1, lambda, V domains shown)
VH: B1 VH with N87S, Q105G, Y108A
VL: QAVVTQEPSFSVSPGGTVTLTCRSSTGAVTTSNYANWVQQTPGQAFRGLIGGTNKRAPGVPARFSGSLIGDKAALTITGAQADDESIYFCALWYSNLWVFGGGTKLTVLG
notes: IgG: VH19 + IgG1 mutant CH, VL-1 + CL
With B18 the EC50 [1] was 238 pM, the EC50 [2] was 190 pM and the Kd [3] was 1570 pM. The koff [3] was 0.00256 s⁻¹ and the kon [3] was 1.63e+06 M⁻¹ s⁻¹.

B19: Positive control antibody OKT3 (antibody, V domains shown)
VH: not shown
VL: QIVLTQSPAIMSASPGEKVTMTCSASSSVSYMNWYQQKSGTSPKRWIYDTSKLASGVPAHFRGSGSGTSYSLTISGMEAEDAATYYCQQWSSNPFTFGSGTKLEI
B19: no binding (tested: 2 µg/ml starting concentration) [1].
